Results: patent US20180155451A1 (published 2018)

T1: FcγRIIa H (human, UniProt P12318 34-217)
T1 construct: extracellular domain; Soluble extracellular domain with C-terminal His tag, expressed in FreeStyle293 cells; also called FcgRIIa H; 2aH; not shown: C-terminal His tag
T1 sequence (looked up): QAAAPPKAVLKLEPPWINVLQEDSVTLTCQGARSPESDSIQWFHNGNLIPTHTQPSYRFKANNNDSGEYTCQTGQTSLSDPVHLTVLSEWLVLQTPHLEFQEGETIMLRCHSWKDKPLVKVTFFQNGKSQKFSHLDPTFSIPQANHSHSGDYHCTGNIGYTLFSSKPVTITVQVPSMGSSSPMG

T2: FcγRIIb (human, UniProt P31994 43-217)
T2 construct: extracellular domain; Soluble extracellular domain with C-terminal His tag, expressed in FreeStyle293 cells; also called FcgRIIb; 2b; not shown: C-terminal His tag
T2 sequence (looked up): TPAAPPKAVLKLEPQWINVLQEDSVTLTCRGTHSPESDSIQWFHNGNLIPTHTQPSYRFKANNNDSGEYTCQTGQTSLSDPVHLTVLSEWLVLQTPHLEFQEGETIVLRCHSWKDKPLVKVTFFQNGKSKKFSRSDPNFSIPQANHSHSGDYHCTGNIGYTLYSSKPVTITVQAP

B1: GpH7-A5/GpH7-B3 variant S239_03V/GpL16-k0 (antibody, human IgG1, kappa)
heavy 1: not shown
heavy 2: not shown
light: DIVMTQSPLSLPVTPGEPASISCQASESLVHSNRNTYLHWYLQKPGQSPQLLIYKVSNRFSGVPDRFSGSGSGTDFTLKISRVEAEDVGVYYCSQNTHVPPTFGQGTKVEIERTVAAPSVFIFPPSDEQLKSGTASVVCLLNNFYPREAKVQWKVDNALQSGNSQESVTEQDSKDSTYSLSSTLTLSKADYEKHKVYACEVTHQGLSSPVTKSFNRGEC
notes: Heterodimerized anti-glypican-3 IgG1; alteration in the GpH7-B3 chain only; also called He Ab
B2: GpH7-A5/GpH7-B3 variant S267_08L/GpL16-k0 (antibody, human IgG1, kappa)
heavy 1: not shown
heavy 2: not shown
light: B1 light
notes: as for B1
B3: GpH7-A5/GpH7-B3 variant S267_14T/GpL16-k0 (antibody, human IgG1, kappa)
heavy 1: not shown
heavy 2: not shown
light: B1 light
notes: as for B1
B4: GpH7-A5/GpH7-B3 variant G237_16H/GpL16-k0 (antibody, human IgG1, kappa)
heavy 1: not shown
heavy 2: not shown
light: B1 light
notes: as for B1
B5: GpH7-A5/GpH7-B3 variant P238_14T/GpL16-k0 (antibody, human IgG1, kappa)
heavy 1: not shown
heavy 2: not shown
light: B1 light
notes: as for B1
B6: GpH7-A5/GpH7-B3 variant P238_20W/GpL16-k0 (antibody, human IgG1, kappa)
heavy 1: not shown
heavy 2: not shown
light: B1 light
notes: as for B1
B7: GpH7-A5/GpH7-B3 variant G236_09D/GpL16-k0 (antibody, human IgG1, kappa)
heavy 1: not shown
heavy 2: not shown
light: B1 light
notes: as for B1
B8: GpH7-A5/GpH7-B3 variant P238_19Q/GpL16-k0 (antibody, human IgG1, kappa)
heavy 1: not shown
heavy 2: not shown
light: B1 light
notes: as for B1
B9: GpH7-A5/GpH7-B3 variant G237_03V/GpL16-k0 (antibody, human IgG1, kappa)
heavy 1: not shown
heavy 2: not shown
light: B1 light
notes: as for B1
B10: GpH7-A5/GpH7-B3 variant L234_09D/GpL16-k0 (antibody, human IgG1, kappa)
heavy 1: not shown
heavy 2: not shown
light: B1 light
notes: as for B1
B11: GpH7-A5/GpH7-B3 variant P238_06M/GpL16-k0 (antibody, human IgG1, kappa)
heavy 1: not shown
heavy 2: not shown
light: B1 light
notes: as for B1
B12: GpH7-A5/GpH7-B3 variant P238_15Y/GpL16-k0 (antibody, human IgG1, kappa)
heavy 1: not shown
heavy 2: not shown
light: B1 light
notes: as for B1
B13: GpH7-A5/GpH7-B3 variant G237_19Q/GpL16-k0 (antibody, human IgG1, kappa)
heavy 1: not shown
heavy 2: not shown
light: B1 light
notes: as for B1
B14: GpH7-A5/GpH7-B3 variant G237_06M/GpL16-k0 (antibody, human IgG1, kappa)
heavy 1: not shown
heavy 2: not shown
light: B1 light
notes: as for B1
B15: GpH7-A5/GpH7-B3 variant S239_05P/GpL16-k0 (antibody, human IgG1, kappa)
heavy 1: not shown
heavy 2: not shown
light: B1 light
notes: as for B1
B16: GpH7-A5/GpH7-B3 variant G237_10E/GpL16-k0 (antibody, human IgG1, kappa)
heavy 1: not shown
heavy 2: not shown
light: B1 light
notes: as for B1
B17: GpH7-A5/GpH7-B3 variant G237_08L/GpL16-k0 (antibody, human IgG1, kappa)
heavy 1: not shown
heavy 2: not shown
light: B1 light
notes: as for B1
B18: GpH7-A5/GpH7-B3 variant G237_04F/GpL16-k0 (antibody, human IgG1, kappa)
heavy 1: not shown
heavy 2: not shown
light: B1 light
notes: as for B1
B19: GpH7-A5/GpH7-B3 variant G237_05P/GpL16-k0 (antibody, human IgG1, kappa)
heavy 1: not shown
heavy 2: not shown
light: B1 light
notes: as for B1

Target: T1, FcγRIIa H
Experiment: SPR (Biacore), antibody captured, FcγR as analyte; relative to HeCon Ab
Protocol: (§1) The heterodimerized antibodies He Abs in which one of the H chains was introduced with an alteration were assayed for their binding activities to each activating FcγR and inhibitory FcγR according to the method described in Example 4. […] The activating FcγRs in FIGS. 26, 27, 28, and 29 are FcγRIa, FcγRIIa (R), FcγRIIa (H), and FcγRIIIa, respectively.
(§2) Analysis of interaction between objective antibody and the FcγR was carried out using Biacore T100 (GE Healthcare). HBS-EP+ (GE Healthcare) was used as the running buffer, and the measurement temperature was set to 25° C. Chips produced by immobilizing the antigen peptide by the amine coupling method to a Series S Sencor Chip CM5 (GE Healthcare), or alternatively, chips produced by allowing preliminarily biotinylated antigen peptides to interact with and immobilize onto a Series S Sensor Chip SA (certified) (GE Healthcare) were used. Antibodies of interest were captured onto an antigen peptide-immobilized chip, and allowed to interact to each FcγR diluted with running buffer. To regenerate and repeatedly use the chip, the antibodies captured on the chip were washed off by reacting 10 mM glycine-HCl, pH 1.5.

He/Con_2aH | Binder
91 % of GpH7-A5/GpH7-B3/GpL16-k0 (=100) | B1
29 % of GpH7-A5/GpH7-B3/GpL16-k0 (=100) | B2
63.3 % of GpH7-A5/GpH7-B3/GpL16-k0 (=100) | B3
16.4 % of GpH7-A5/GpH7-B3/GpL16-k0 (=100) | B4
37.7 % of GpH7-A5/GpH7-B3/GpL16-k0 (=100) | B5
59.5 % of GpH7-A5/GpH7-B3/GpL16-k0 (=100) | B6
89.8 % of GpH7-A5/GpH7-B3/GpL16-k0 (=100) | B7
56.4 % of GpH7-A5/GpH7-B3/GpL16-k0 (=100) | B8
39.4 % of GpH7-A5/GpH7-B3/GpL16-k0 (=100) | B9
89.9 % of GpH7-A5/GpH7-B3/GpL16-k0 (=100) | B10
47.6 % of GpH7-A5/GpH7-B3/GpL16-k0 (=100) | B11
59.8 % of GpH7-A5/GpH7-B3/GpL16-k0 (=100) | B12
26.5 % of GpH7-A5/GpH7-B3/GpL16-k0 (=100) | B13
17.8 % of GpH7-A5/GpH7-B3/GpL16-k0 (=100) | B14
33.3 % of GpH7-A5/GpH7-B3/GpL16-k0 (=100) | B15
15.1 % of GpH7-A5/GpH7-B3/GpL16-k0 (=100) | B16
13.9 % of GpH7-A5/GpH7-B3/GpL16-k0 (=100) | B17
41.4 % of GpH7-A5/GpH7-B3/GpL16-k0 (=100) | B18

Target: T2, FcγRIIb
Experiment: as above
Protocol: as §1, §2

He/Con_2b | Binder
108 % of GpH7-A5/GpH7-B3/GpL16-k0 (=100) | B1
109 % of GpH7-A5/GpH7-B3/GpL16-k0 (=100) | B2
104 % of GpH7-A5/GpH7-B3/GpL16-k0 (=100) | B3
24.6 % of GpH7-A5/GpH7-B3/GpL16-k0 (=100) | B19
55.2 % of GpH7-A5/GpH7-B3/GpL16-k0 (=100) | B4
50.7 % of GpH7-A5/GpH7-B3/GpL16-k0 (=100) | B5
123 % of GpH7-A5/GpH7-B3/GpL16-k0 (=100) | B6
167 % of GpH7-A5/GpH7-B3/GpL16-k0 (=100) | B7
110 % of GpH7-A5/GpH7-B3/GpL16-k0 (=100) | B8
61.4 % of GpH7-A5/GpH7-B3/GpL16-k0 (=100) | B9
150 % of GpH7-A5/GpH7-B3/GpL16-k0 (=100) | B10
174 % of GpH7-A5/GpH7-B3/GpL16-k0 (=100) | B11
218 % of GpH7-A5/GpH7-B3/GpL16-k0 (=100) | B12
108 % of GpH7-A5/GpH7-B3/GpL16-k0 (=100) | B13
130 % of GpH7-A5/GpH7-B3/GpL16-k0 (=100) | B14
102 % of GpH7-A5/GpH7-B3/GpL16-k0 (=100) | B15
114 % of GpH7-A5/GpH7-B3/GpL16-k0 (=100) | B16
148 % of GpH7-A5/GpH7-B3/GpL16-k0 (=100) | B17
149 % of GpH7-A5/GpH7-B3/GpL16-k0 (=100) | B18
